Data from paper PMC7002343.

System: EspM (lysate) (Mycobacterium marinum M (ATCC BAA-535))
Experiment: DNA pull-down, LC-MS/MS
Conditions: 5' BiotinTEG on both primers; EspM EMSA: 10 mM Tris-HCl pH 8.0, 40 mM KCl, 2.5 mM DTT, 0.25% Tween-20, 0.02 mg/mL salmon sperm DNA (listed as 0.5x binding buffer), ~70 ng probe, 20-25 min …

## whiB6 promoter bait (1 kb)
  binding signal (fold enrichment over rpoA bait (N5)): > 64
